Test results published in PMC7356834.

How the values were obtained:
[1] = test system: T1, APASM_1021 (AdpA-like protein) (Actinosynnema pretiosum ATCC 31280), ORF:1b9350d8; assay: EMSA; conditions: 10 mM Tris-HCl pH 7.5, 1 mM EDTA, 100 mM KCl, 5% glycerol, 0.1 DTT (unit not given), 0.01 mg/mL BSA; 30 min at 30 C; 10% native PAGE at 4 C
T1 sequence: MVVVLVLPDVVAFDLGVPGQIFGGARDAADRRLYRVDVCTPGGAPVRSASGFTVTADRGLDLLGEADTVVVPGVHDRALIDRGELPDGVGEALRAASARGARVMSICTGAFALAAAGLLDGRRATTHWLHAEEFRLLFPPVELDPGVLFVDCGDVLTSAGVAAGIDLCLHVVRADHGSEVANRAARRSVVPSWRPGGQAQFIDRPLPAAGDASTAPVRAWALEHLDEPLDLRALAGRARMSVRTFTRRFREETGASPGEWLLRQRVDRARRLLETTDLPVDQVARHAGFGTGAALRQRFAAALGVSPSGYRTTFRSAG

[2] = test system: T1, APASM_1021 (AdpA-like protein) (Actinosynnema pretiosum ATCC 31280), ORF:1b9350d8; assay: competition; conditions: 10 mM Tris-HCl pH 7.5, 1 mM EDTA, 100 mM KCl, 5% glycerol, 0.1 DTT (unit not given), 0.01 mg/mL BSA; 30 min at 30 C; 10% native PAGE at 4 C

| Sequence | binding [1] | binding [2] |
| --- | --- | --- |
| TGGAGCCGCTGACGGGGAGCCATCGACGGGAAGCCGCTGACCGGCCTCTCCGCGCCGCCACGCGGGCGCCGCACCTGAACCAGGTGCGGCGCCCGCGTGGTCGCGCCCTTTGACCCCGCCCCCGTTCCCCT (double strand) [P4178] | binds |  |
| TGGAGCCGCTGACGGGGAGCCATCGACGGGAAGCCGCTGACCGGCCTCTCCGCGCCGCCACGCGGGCGCCGCACCTGAACCAGGTGCGGCGCCCGCGTGGTCGCGCCCTTTGACCCCGCCCCCGTTCCCCT (double strand) [P4178 unlabeled competitor] |  | binds |
